Blank lines part the entries; values can stand above or below the binder they belong to.
Legend:
[1] = target: T1, Peptide_004 (human); assay: peptide microarray, 0.2 ug/mL
T1 construct: 15-mer on microarray; not native form, recombinant insert region
T1 peptide: AADVHSQHHHHHHHH
Method: (§1) 5, 1, 0.2, 0.04, 0.008 and 0.0016 μg/mL serial dilutions were incubated on a single multi-well microarray slide at 30° C. for 1 hour. The slide includes 21 individual mini-arrays (one mini-array per sample dilution).
(§2) DyLight 650 was used as a label. False-positive binding to a peptide was evaluated by performing one additional control incubation in which only a secondary antibody was applied on the same microarray slide. Before performing each step, the microarrays were washed with a washing buffer.

[2] = target: T2, Peptide_005 (human); assay: peptide microarray, 0.2 ug/mL
T2 construct: 15-mer on microarray; not native form, recombinant insert region
T2 peptide: ADVHSQHHHHHHHHV
Method: as §1, §2

[3] = target: T3, Peptide_013 (human); assay: peptide microarray, 0.2 ug/mL
T3 construct: 15-mer on microarray; not native form, includes recombinant insert region
T3 peptide: HHHHHHVKQIESKTA
Method: as §1, §2

[4] = target: T4, Peptide_051 (human); assay: peptide microarray, 0.2 ug/mL
T4 construct: 15-mer of hTrx1 on microarray
T4 peptide: PCKMIKPFFHSLSEK
Method: as §1, §2

[5] = target: T5, Peptide_018 (human); assay: peptide microarray, 0.2 ug/mL
T5 construct: 15-mer on microarray; not native form, includes recombinant insert region; also called HVKQIESKTAFQEAL
T5 peptide: HVKQIESKTAFQEAL
Method: as §1, §2

[6] = target: T6, Peptide_085 (human); assay: peptide microarray, 0.2 ug/mL
T6 construct: 15-mer of hTrx1 on microarray
T6 peptide: ECEVKCMPTFQFFKK
Method: as §1, §2

[7] = target: T7, Peptide_023 (human); assay: peptide microarray, 0.2 ug/mL
T7 construct: 15-mer of hTrx1 on microarray
T7 peptide: ESKTAFQEALDAAGD
Method: as §1, §2

[8] = target: T8, Peptide_093 (human); assay: peptide microarray, 0.2 ug/mL
T8 construct: 15-mer of hTrx1 on microarray
T8 peptide: TFQFFKKGQKVGEFS
Method: as §1, §2

[9] = target: T9, Peptide_092 (human); assay: peptide microarray, 0.2 ug/mL
T9 construct: 15-mer of hTrx1 on microarray
T9 peptide: PTFQFFKKGQKVGEF
Method: as §1, §2

[10] = target: T10, Peptide_045 (human); assay: peptide microarray, 0.2 ug/mL
T10 construct: 15-mer of hTrx1 on microarray
T10 peptide: SATWCGPCKMIKPFF
Method: as §1, §2

[11] = target: T11, Peptide_022 (human); assay: peptide microarray, 0.2 ug/mL
T11 construct: 15-mer of hTrx1 on microarray
T11 peptide: IESKTAFQEALDAAG
Method: as §1, §2

[12] = target: T12, Peptide_094 (human); assay: peptide microarray, 0.2 ug/mL
T12 construct: 15-mer of hTrx1 on microarray
T12 peptide: FQFFKKGQKVGEFSG
Method: as §1, §2

[13] = target: T13, Peptide_024 (human); assay: peptide microarray, 0.2 ug/mL
T13 construct: 15-mer of hTrx1 on microarray
T13 peptide: SKTAFQEALDAAGDK
Method: as §1, §2

[14] = target: T14, Peptide_025 (human); assay: peptide microarray, 0.2 ug/mL
T14 construct: 15-mer of hTrx1 on microarray
T14 peptide: KTAFQEALDAAGDKL
Method: as §1, §2

[15] = target: T15, Peptide_014 (human); assay: peptide microarray, 0.2 ug/mL
T15 construct: 15-mer on microarray; not native form, includes recombinant insert region
T15 peptide: HHHHHVKQIESKTAF
Method: as §1, §2

[16] = target: T16, Peptide_086 (human); assay: peptide microarray, 0.2 ug/mL
T16 construct: 15-mer of hTrx1 on microarray
T16 peptide: CEVKCMPTFQFFKKG
Method: as §1, §2

[17] = target: T17, Peptide_012 (human); assay: peptide microarray, 0.2 ug/mL
T17 construct: 15-mer on microarray; not native form, includes recombinant insert region
T17 peptide: HHHHHHHVKQIESKT
Method: as §1, §2

[18] = target: T18, Peptide_021 (human); assay: peptide microarray, 0.2 ug/mL
T18 construct: 15-mer of hTrx1 on microarray
T18 peptide: QIESKTAFQEALDAA
Method: as §1, §2

[19] = target: T19, Peptide_095 (human); assay: peptide microarray, 0.2 ug/mL
T19 construct: 15-mer of hTrx1 on microarray
T19 peptide: QFFKKGQKVGEFSGA
Method: as §1, §2

[20] = target: T20, human thioredoxin-1 (Trx1) (human, UniProt P10599 1-105); assay: one site - total fit (Prism) of the ELISA of panel (a); the cell has no unit, the concentrations of panel (a) are in nM; paragraph 183 prints it rounded as 1.3x10^-10 [b]
T20 construct: also called hTrx1; hTRX1
T20 sequence (looked up): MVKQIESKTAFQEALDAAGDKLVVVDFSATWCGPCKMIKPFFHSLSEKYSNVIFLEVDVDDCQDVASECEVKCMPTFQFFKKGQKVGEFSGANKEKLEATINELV
Method: 100 μl of a coating buffer and 100 ng of Trx1 were mixed and dispensed to each well, and then reacted at 4° C. for 16 hours or more. After the reaction solution was removed, 200 μl of PBSA was dispensed to each well and reacted at 37° C. for 120 minutes. […] After the reaction solution was removed, washing was performed by dispensing 200 μl of a washing buffer to each well. The above-described process was performed two times.
After the reaction solution was removed, washing was performed by dispensing 200 μl of a washing buffer to each well. The above-described process was performed three times.

[21] = target: T3, Peptide_013; assay: peptide microarray, 0.04 ug/mL
Method: as §1, §2

[22] = target: T4, Peptide_051; assay: peptide microarray, 0.04 ug/mL
Method: as §1, §2

[23] = target: T5, Peptide_018; assay: peptide microarray, 0.04 ug/mL
Method: as §1, §2

[24] = target: T6, Peptide_085; assay: peptide microarray, 0.04 ug/mL
Method: as §1, §2

[25] = target: T7, Peptide_023; assay: peptide microarray, 0.04 ug/mL
Method: as §1, §2

[26] = target: T21, Peptide_020 (human); assay: peptide microarray, 0.04 ug/mL
T21 construct: 15-mer of hTrx1 on microarray
T21 peptide: KQIESKTAFQEALDA
Method: as §1, §2

[27] = target: T9, Peptide_092; assay: peptide microarray, 0.04 ug/mL
Method: as §1, §2

[28] = target: T10, Peptide_045; assay: peptide microarray, 0.04 ug/mL
Method: as §1, §2

[29] = target: T11, Peptide_022; assay: peptide microarray, 0.04 ug/mL
Method: as §1, §2

[30] = target: T12, Peptide_094; assay: peptide microarray, 0.04 ug/mL
Method: as §1, §2

[31] = target: T13, Peptide_024; assay: peptide microarray, 0.04 ug/mL
Method: as §1, §2

[32] = target: T14, Peptide_025; assay: peptide microarray, 0.04 ug/mL
Method: as §1, §2

[33] = target: T22, Peptide_084 (human); assay: peptide microarray, 0.04 ug/mL
T22 construct: 15-mer of hTrx1 on microarray
T22 peptide: SECEVKCMPTFQFFK
Method: as §1, §2

[34] = target: T15, Peptide_014; assay: peptide microarray, 0.04 ug/mL
Method: as §1, §2

[35] = target: T18, Peptide_021; assay: peptide microarray, 0.04 ug/mL
Method: as §1, §2

- signal (blank-control = 1) [1]: 1.41
- signal (blank-control = 1) [2]: 1.78
B1: monoclonal antibody B266-1 (antibody, human IgG1)
light: QIVLTQSPAIMSASPGEKVTMTCSASSRISYMYWYQQKPGTSPKRWIYDTSKLASGVPARFSGSGSGTSYSLTISTMEAEDAATYYCHQRSSYPTFGAGTKLELKSVAAPSVFIFPPSDEQLKSGTASVVCLLNNFYPREAKVQWKVDNALQSGNSQESVTEQDSKDSTYSLSSTLTLSKADYEKHKVYACEVTHQGLSSPVTKSFNRGEC
heavy: not shown
notes: B266 with the Fc part changed to human IgG1; also called B266-1 (Trx1-hIgG1); B266-1 (hTrx1-hIgG1)

- signal (blank-control = 1) [3]: 1.85
- signal (blank-control = 1) [4]: 2.32
- signal (blank-control = 1) [5]: 3.49
- signal (blank-control = 1) [6]: 2.23
- signal (blank-control = 1) [7]: 1.12
- signal (blank-control = 1) [8]: 3.72
- signal (blank-control = 1) [9]: 6.81
- signal (blank-control = 1) [10]: 4.58
- signal (blank-control = 1) [11]: 4.2
- signal (blank-control = 1) [12]: 2.11
- signal (blank-control = 1) [13]: 4
- signal (blank-control = 1) [14]: 4.9
- signal (blank-control = 1) [15]: 3.16
- signal (blank-control = 1) [16]: 1.16
- signal (blank-control = 1) [17]: 1.72
- signal (blank-control = 1) [18]: 2.08
- signal (blank-control = 1) [19]: 2.13
- Kd [20]: 0.133 nM
- signal (blank-control = 1) [21]: 1.4
- signal (blank-control = 1) [22]: 1.41
- signal (blank-control = 1) [23]: 1.64
- signal (blank-control = 1) [24]: 1.48
- signal (blank-control = 1) [25]: 1.15
- signal (blank-control = 1) [26]: 1.33
- signal (blank-control = 1) [27]: 5.18
- signal (blank-control = 1) [28]: 4.59
- signal (blank-control = 1) [29]: 2.89
- signal (blank-control = 1) [30]: 1.49
- signal (blank-control = 1) [31]: 2.38
- signal (blank-control = 1) [32]: 2.39
- signal (blank-control = 1) [33]: 1.83
- signal (blank-control = 1) [34]: 1.49
- signal (blank-control = 1) [35]: 1.35
B2: monoclonal antibody B264 (antibody, mouse IgG1, kappa, V domains shown)
VH: QVQLQQSGAELARPGASVKMSCKASGYTFTSYTMHWVKQRPGQGLEWIGYINPTSDYTNYNQKFKDKATLTADKSSSTAYMQLSSLTSEDSAVYFCASEGGFLYYFDYWGQGTTLTVSS
VL: DVLMTQTPLSLPVSLGDQASISCRSSQSIVHSNGNTYLEWYLQKPGQSPKLLIYKVSNRFSGVPDRFSGSGSGTDFTLKISRVEAEDLGVYYCFQGSHVPYTFGGGTKLEIKR
notes: also called AB264; B264 (Trx1-mIgG1)

From patent US20240192215A1 (E AND S HEALTHCARE, published 2024)
